Laboratory results taken from paper PMC12373829 (Nature Communications, 2025).

Columns and labels:
[1] = target: T1, acarbose-preferred glucosidase (Apg) (Klebsiella grimontii, UniProt A0ABD7ANA7, DEL138-152); assay: X-ray crystal structure; assay type: binding
T1 sequence (A0ABD7ANA7 1-605 DEL138-152): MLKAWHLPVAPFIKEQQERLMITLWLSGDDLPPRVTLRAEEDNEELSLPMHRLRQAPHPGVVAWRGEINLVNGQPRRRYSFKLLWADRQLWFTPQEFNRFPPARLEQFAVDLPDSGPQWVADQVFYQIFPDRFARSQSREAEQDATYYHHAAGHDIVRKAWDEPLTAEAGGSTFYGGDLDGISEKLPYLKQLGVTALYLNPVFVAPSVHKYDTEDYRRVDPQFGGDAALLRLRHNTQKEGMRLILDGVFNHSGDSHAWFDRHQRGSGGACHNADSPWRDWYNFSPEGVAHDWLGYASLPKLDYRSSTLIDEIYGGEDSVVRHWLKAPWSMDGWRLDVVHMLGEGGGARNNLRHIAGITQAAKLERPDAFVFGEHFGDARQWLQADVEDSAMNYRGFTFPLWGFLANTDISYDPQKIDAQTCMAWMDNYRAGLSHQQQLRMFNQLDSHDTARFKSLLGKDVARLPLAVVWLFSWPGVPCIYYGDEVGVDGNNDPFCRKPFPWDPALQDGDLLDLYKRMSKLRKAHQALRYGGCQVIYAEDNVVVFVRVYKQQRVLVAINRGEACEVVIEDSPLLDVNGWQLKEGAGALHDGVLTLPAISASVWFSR

[2] = target: acarbose-preferred glucosidase (Apg), wild type (K. grimontii TD1); assay: SEC
purified protein [3] = substrate: C[C@H]1O[C@H](O[C@H]2[C@H](O)[C@@H](O)[C@@H](O)O[C@@H]2CO)[C@H](O)[C@@H](O)[C@@H]1N[C@H]1C=C(CO)[C@@H](O)[C@H](O)[C@H]1O; assay: purified protein; conditions: active site
purified protein [4] = substrate: C[C@H]1O[C@H](O[C@H]2[C@H](O)[C@@H](O)[C@@H](O[C@H]3[C@H](O)[C@@H](O)C(O)O[C@@H]3CO)O[C@@H]2CO)[C@H](O)[C@@H](O)[C@@H]1N[C@H]1C=C(CO)[C@@H](O)[C@H](O)[C@H]1O; assay: purified protein; conditions: active site; D448 nucleophile, E373/R334 proton donor

## OC[C@H]1O[C@H](O)[C@H](O)[C@@H](O)[C@@H]1O [glucose]
[1]
  X-ray crystal structure (co-crystallization): Crystals of the glucose complex were obtained by co-crystallization of the ∆loop A mutant

## acarbose-preferred glucosidase (Apg), wild type (enzyme)
[2]
  stoichiometry N: 2

B1: acarbose-preferred glucosidase (Apg) (Klebsiella grimontii) (protein)
chain: MLKAWHLPVAPFIKEQQERLMITLWLSGDDLPPRVTLRAEEDNEELSLPMHRLRQAPHPGVVAWRGEINLVNGQPRRRYSFKLLWADRQLWFTPQEFNRFPPARLEQFAVDLPDSGPQWVADQVFYQIFPDRFARSQSREAEQDATYYHHAAGHDIVRKAWDEPLTAEAGGSTFYGGDLDGISEKLPYLKQLGVTALYLNPVFVAPSVHKYDTEDYRRVDPQFGGDAALLRLRHNTQKEGMRLILDGVFNHSGDSHAWFDRHQRGSGGACHNADSPWRDWYNFSPEGVAHDWLGYASLPKLDYRSSTLIDEIYGGEDSVVRHWLKAPWSMDGWRLDVVHMLGEGGGARNNLRHIAGITQAAKLERPDAFVFGEHFGDARQWLQADVEDSAMNYRGFTFPLWGFLANTDISYDPQKIDAQTCMAWMDNYRAGLSHQQQLRMFNQLDSHDTARFKSLLGKDVARLPLAVVWLFSWPGVPCIYYGDEVGVDGNNDPFCRKPFPWDPALQDGDLLDLYKRMSKLRKAHQALRYGGCQVIYAEDNVVVFVRVYKQQRVLVAINRGEACEVVIEDSPLLDVNGWQLKEGAGALHDGVLTLPAISASVWFSR
Purified protein [3]
  Km: 6.642 ± 0.371 µM
Purified protein [4]
  Km: 2.600 ± 0.652 µM
